± gives the standard deviation of the averaged measurements.
B1: library; a variant is named by its letters at N, in order (parent)
chain: AATGTTGTTGATGCAACCATAAAGTGATATTTAATAATTATTTATAATCAGCAACTTAACCACAAAACAACCATATATTGATATNTCACAAAACAACCATAANTTGATATTTTTGTGAATCGAGTATTTCAGCAAAACTACTGCAGTAAGAA

Experiments:
[1] = variants of: B1; assay: relative integration efficiency (T-LR orientation) vs wild-type transposon end (log2 (normalized fold change)); transposon end mutated: left end; higher = more efficient transposition; settings: with VchCAST RNA-guided transposition machinery (E. coli BL21(DE3) host, lacZ target)
Summary of the method: (§1)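 A T7-driven effector plasmid encoding a CRISPR array, tniQ-cas8-cas7-cas6 and tnsA-tnsB-tnsC was co-transformed into E. coli BL21(DE3) together with a pUC57 mini-transposon donor holding barcoded pools of 1549 left-end or 1849 right-end variants. Transformants were plated with 0.1 mM IPTG at 37°C for 18 h. Illumina sequencing of PCR-amplified input plasmids and genomic integration junctions gave barcode abundances, and relative integration efficiency is their output/input fold change, normalised to reference barcodes and log-transformed.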

[2] = variants of: B1; assay: relative integration efficiency (T-RL orientation) vs wild-type transposon end (log2 (normalized fold change)); transposon end mutated: left end; higher = more efficient transposition; settings: with VchCAST RNA-guided transposition machinery (E. coli BL21(DE3) host, lacZ target)
Summary of the method: as §1

Variant | relative integration efficiency (log2) [1] | relative integration efficiency (log2) [2]
CG T9G G10T | -0.0361 ± 0.31 | 0.0751 ± 0.11
CG G117C A118T | 0.236 ± 0.11 | 0.235 ± 0.026
CG C61A A62C C63A A64C | -0.0245 ± 0.0054 | 0.137 ± 0.14
CG C89G A90T | 0.739 ± 0.17 | 0.378 ± 0.24
CG T12C | -0.943 ± 0.57 | -0.0642 ± 0.048
CG T12A | 0.00533 ± 0.2 | -0.099 ± 0.056
CG T12G | -0.01 ± 0.2 | -0.917 ± 0.57
CG G117T A118C | 0.251 ± 0.35 | 0.0866 ± 0.029
CG C52A | 0.484 ± 0.55 | 0.279 ± 0.017
CG C52G | 0.484 ± 0.31 | -0.00219 ± 0.15
CG C52T | 0.154 ± 0.19 | 0.201 ± 0.14
CG G24A T30A | 0.342 ± 0.15 | 0.261 ± 0.027
CG C49G G51T C52G C55T A58T A59T C60A C61T A62G | -4.34 ± 2.5 | -4.9 ± 0.68
CG G13T C14A A15C A16C | -1.69 ± 1.1 | -0.389 ± 0.12
CG G122T A123C G124T T125G | 0.252 ± 0.21 | 0.127 ± 0.054
CG T9A G10C A11T T12A | -4.24 ± 1.9 | -1.59 ± 0.56
CG G10T A11C | -2.92 ± 0.037 | -1.58 ± 0.41
CG T12A G13A A77C T86G | -0.125 ± 0.28 | -0.319 ± 0.14
CG G115T T116G G117T A118C | -0.131 ± 0.19 | -0.00966 ± 0.025
CG T3C | 0.718 ± 0.1 | 0.297 ± 0.0045
CG T3A | -0.175 ± 0.58 | -0.148 ± 0.071
CG T3G | 0.394 ± 0.5 | 0.0915 ± 0.044
CG G26C A27T T28A A29T | -1.67 ± 0.28 | -1.58 ± 0.67
CG T12A G13A T30A T32A A77C T86G | -0.499 ± 0.21 | -0.36 ± 0.22

Variant | relative integration efficiency (log2) [1] | relative integration efficiency (log2) [2]
CG G51T C52A A53C A54C | -0.964 ± 0.62 | -0.488 ± 0.45
CG G51T | 0.637 ± 0.29 | 0.00628 ± 0.18
CG G51C | -0.456 ± 0.66 | -0.42 ± 0.19
CG G51A | 0.634 ± 0.19 | 0.302 ± 0.085
CG C94G A95T | -2.11 ± 0.65 | -1.23 ± 0.53
CG T9G | 0.416 ± 0.19 | 0.28 ± 0.09
CG T9C | 0.146 ± 0.38 | 0.242 ± 0.0041
CG T9A | -0.191 ± 0.61 | -0.00405 ± 0.092
CG C87A A88C C89A A90C | 0.382 ± 0.34 | 0.292 ± 0.29
CG C71G | -0.452 ± 0.8 | -0.253 ± 0.4
CG C71T | -0.49 ± 0.49 | -0.408 ± 0.23
CG C71A | -0.709 ± 0.022 | -0.461 ± 0.26
CG G80T A81C | -1.7 ± 0.97 | -1.51 ± 0.7
CG G13A | 0.397 ± 0.29 | 0.195 ± 0.069
CG G13T | -0.887 ± 0.83 | 0.0664 ± 0.041
CG G13C | -0.392 ± 0.57 | 0.0316 ± 0.11
CG T12A G13A T30A A77C T86G | -0.394 ± 0.45 | -0.113 ± 0.12
CG C121A G122T A123C G124T T125G | 0.905 ± 0.042 | 0.666 ± 0.12
TG G24A T30A A70C T76A T84A C87A | 0.298 ± 0.13 | -0.172 ± 0.16
CG G80A | -0.967 ± 1.4 | -0.773 ± 0.37
CG G80C | -1.47 ± 0.43 | -2.06 ± 0.66
CG G80T | 0.0932 ± 0.91 | -0.44 ± 0.42
CG T12A G13A T30A T31C T32A T86G | -0.319 ± 0.034 | -0.119 ± 0.27
CG T9G G10T A11C T12G | -1.29 ± 0.52 | -0.645 ± 0.35

Variant | relative integration efficiency (log2) [1] | relative integration efficiency (log2) [2]
CG G26T A27C T28G A29C | -1.37 ± 0.4 | -1.9 ± 1.2
CG G115T T116G G117T A118C A119C T120G C121A G122T A123C G124T T125G | 0.199 ± 0.37 | 0.000247 ± 0.072
CG T8G | < -10 | -6.68 ± 0.98
CG T8C | -0.996 ± 0.69 | -1.39 ± 0.56
CG T8A | -0.491 ± 0.035 | -0.209 ± 0.19
CG C61G A62T | -0.236 ± 0.51 | -0.362 ± 0.074
CG C98G A99T T100A A101T | -1.8 ± 0.21 | -2 ± 0.73
CG C52A A53C A54C C55A | 0.277 ± 0.23 | 0.0708 ± 0.21
CG G13A T30A T31C T32A A77C T86G | -0.338 ± 0.55 | -0.517 ± 0.16
CG G106C A107T T108A A109T | -1.44 ± 0.63 | -1.36 ± 0.7
CG C94G A95T A96T C97G | -1.95 ± 1.2 | -0.731 ± 1
CG G51T C52A | 0.348 ± 0.34 | 0.159 ± 0.19
CG T12A G13C C14G A15T | -0.874 ± 0.76 | -0.341 ± 0.43
CG C71A C72A | -1.63 ± 1.1 | -1.05 ± 0.77
CG C52A A53C | 0.0739 ± 0.63 | -0.177 ± 0.1
CG C94A A95C | -0.623 ± 0.98 | -0.474 ± 0.4
CG C72A A73C | -2.02 ± 0.55 | -2.16 ± 0.91
CG G13T C14A | -1.46 ± 1.2 | -0.416 ± 0.31
CG C52G A53T | 0.253 ± 0.28 | 0.138 ± 0.048
CG G115T | 0.42 ± 0.24 | 0.238 ± 0.1
CG G115C | 0.709 ± 0.14 | 0.417 ± 0.026
CG G115A | 0.113 ± 0.17 | -0.259 ± 0.26
CG C68G A69T A70T C71G | -0.963 ± 0.71 | -1.93 ± 0.91
CG G13C C14G | -0.831 ± 0.62 | -0.232 ± 0.36

Variant | relative integration efficiency (log2) [1] | relative integration efficiency (log2) [2]
CG C87A | -0.42 ± 0.76 | -0.276 ± 0.053
CG C87G | 0.0991 ± 0.48 | -0.138 ± 0.019
CG C87T | -0.29 ± 0.12 | -0.0232 ± 0.071
CG G10C A11T | < -10 | 0.833 ± 0.19
CG C87G A88T C89G A90T | 0.251 ± 0.48 | -0.077 ± 0.18
CG T12A G13A T32A A77C T86G | 0.117 ± 0.45 | -0.0481 ± 0.05
CG C55G T56A | 0.0301 ± 0.44 | 0.0691 ± 0.024
CG G7T T8G | < -10 | -7.23 ± 1.1
CG C87A A88C | 0.256 ± 0.18 | -0.00605 ± 0.14
CG G24T T78G T104G | 0.121 ± 0.35 | -0.352 ± 0.37
CG T12A T30A T31C T32A A77C T86G | -0.709 ± 0.52 | -0.451 ± 0.25
CG C72A A73C T74G A75C | -2.39 ± 1.6 | -2.27 ± 0.64
CG G10T A11C T12G G13T | -4.3 ± 0.89 | -1.43 ± 0.49
CG C61G A62T C63G A64T | 0.0811 ± 0.61 | -0.0813 ± 0.26
CG G24T | 0.871 ± 0.023 | 0.72 ± 0.19
CG G24A | 0.726 ± 0.12 | 0.3 ± 0.075
CG G24C | -0.15 ± 0.17 | -0.164 ± 0.021
CG T12A G13A | -0.256 ± 0.34 | -0.294 ± 0.04
CG T12A G13C | 0.233 ± 0.21 | -0.107 ± 0.067
CG T8A T9A | -0.985 ± 0.14 | -0.297 ± 0.11
CG C89A A90C | 0.0275 ± 0.49 | -0.181 ± 0.15
CG T20A A21T A22T A23T | -0.732 ± 0.16 | -0.758 ± 0.34
CG C71G C72G A73T T74A | -1.87 ± 0.61 | -2.18 ± 0.97
CG C55G T56A T57A A58T | -2.28 ± 0.67 | -0.983 ± 0.39

Variant | relative integration efficiency (log2) [1] | relative integration efficiency (log2) [2]
CG G4T T5G | -0.37 ± 0.2 | -0.366 ± 0.035
CG C60G C61G A62T C63G | 0.27 ± 0.29 | -0.0479 ± 0.14
CG C94A A95C A96C C97A | -1.9 ± 0.51 | -1.87 ± 0.78
CG G26C A27T | -3.33 ± 1.1 | -2.12 ± 0.85
CG C98A A99C T100G A101C | -1.33 ± 0.029 | -2.27 ± 0.92
CG C87G A88T | 0.294 ± 0.33 | 0.11 ± 0.21
CG G115C T116A G117C A118T | 0.334 ± 0.11 | -0.12 ± 0.028
CG G117C A118T A119T T120A | 0.101 ± 0.3 | 0.268 ± 0.02
CG C72T | -0.0498 ± 0.25 | -0.0527 ± 0.2
CG C72A | -0.613 ± 1 | -0.492 ± 0.48
CG C72G | -0.262 ± 0.52 | -0.201 ± 0.43
CG C63G A64T | 0.148 ± 0.19 | 0.1041 ± 0.00033
CG C61T | 0.151 ± 0.41 | -0.122 ± 0.029
CG C61G | -0.0835 ± 0.46 | -0.191 ± 0.019
CG C61A | 0.321 ± 0.14 | 0.0593 ± 0.091
CG C71A C72A A73C T74G | -2.28 ± 1.8 | -2.51 ± 1
CG C63A A64C A65C A66C | -0.236 ± 0.15 | -0.189 ± 0.012
CG G106C A107T | -1.92 ± 1.4 | -1.78 ± 0.63
CG T9A G10C | -2.248 ± 0.0027 | -0.479 ± 0.16
CG G124T T125G | -0.377 ± 0.42 | -0.329 ± 0.048
